Test results taken from US20060287510A1 (Genentech, published 2006).

Molecular target: T1, recombinant human insulin-like growth factor-1 (rhIGF-1) (human, UniProt P05019 49-118)
T1 construct: Soluble protein used for crystallization, sedimentation equilibrium and NMR; It was uniformly 13C/15N labelled for the NMR complex with IGF-F1-1; also called human IGF-1; 13C/15N IGF-1
Test: NMR structure of the complex (figure legend)

T1 sequence (P05019 49-118): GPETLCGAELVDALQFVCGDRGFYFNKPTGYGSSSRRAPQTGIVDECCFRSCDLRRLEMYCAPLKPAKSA

B1: phage-derived IGF-1 antagonist peptide IGF-F1-1 (peptide)
peptide: RNCFESVAALRRCMYG
notes: Unlabelled peptide mixed in slight molar excess with 1.5 mM 13C/15N IGF-1 for NMR
- binding result: binds
